Test results as given in US20220251219A1 (published 2022).
Positions count from the first letter of the chain named.

B1: anti-Sortilin antibody S-18 (antibody, V domains shown)
VH: QVQLVQSGAEVKKPGSSVKVSCKASGGTFSSYAISWVRQAPGQGLEWMGSIIPIFGTANYAQKFQGRVTITADESTSTAYMELSSLRSEDTAVYYCARDKHGRRGYYYYMDVWGKGTTVTVSS
VL: EIVLTQSPATLSLSPGERATLSCRASQSVSSYLAWYQQKPGQAPRLLIYDASNRATGIPARFSGSGSGTDFTLTISSLEPEDFAVYYCQQGANAPPRTFGGGTKVEIK
notes: IgG
B2: anti-Sortilin antibody S-19 (antibody, V domains shown)
VH: QVQLVQSGAEVKKPGSSVKVSCKASGGTFSSYAISWVRQAPGQGLEWMGGIIPIFGTASYAQKFQGRVTITADESTSTAYMELSSLRSEDTAVYYCARESRIPGSGYYYYYGMDVWGQGTTVTVSS
VL: DIQMTQSPSSLSASVGDRVTITCRASQSISSYLNWYQQKPGKAPKLLIYSASSLQSGVPSRFSGSGSGTDFTLTISSLQPEDFATYYCQQTDGKPPTFGGGTKVEIK
notes: IgG
B3: anti-Sortilin antibody S-21 (antibody, V domains shown)
VH: QVQLVQSGAEVKKPGSSVKVSCKASGGTFSSYAISWVRQAPGQGLEWMGSIIPIFGTANYAQKFQGRVTITADESTSTAYMELSSLRSEDTAVYYCARERRYDGYYYYYGMDVWGQGTTVTVSS
VL: B2 VL with S50A, T91K, D92A, G93S, K94L, P96F
notes: IgG
B4: anti-Sortilin antibody S-22 (antibody, V domains shown)
VH: B3 VH with S50G, N59S, E99Q, R100G, Y102K, D103T
VL: DIQMTQSPSTLSASVGDRVTITCRASQSISSWLAWYQQKPGKAPKLLIYKASSLESGVPSRFSGSGSGTEFTLTISSLQPDDFATYYCQQADGHITFGGGTKVEIK
notes: IgG
B5: anti-Sortilin antibody S-26 (antibody, V domains shown)
VH: EVQLVESGGGLVKPGGSLRLSCAASGFTFSSYSMNWVRQAPGKGLEWVSSISSSSSYIYYADSVKGRFTISRDNAKNSLYLQMNSLRAEDTAVYYCARDRLGRGYKWNWFDPWGQGTLVTVSS
VL: DIQMTQSPSSVSASVGDRVTITCRASQGIDSWLAWYQQKPGKAPKLLIYAASSLQSGVPSRFSGSGSGTDFTLTISSLQPEDFATYYCQQGNSLPPITFGGGTKVEIK
notes: IgG
B6: anti-Sortilin antibody S-28 (antibody, V domains shown)
VH: EVQLVESGGGLVKPGGSLRLSCAASGFTFSSYSMNWVRQAPGKGLEWVSSISSSSNYIYYADSVKGRFTISRDNAKNSLYLQMNSLRAEDTAVYYCARGGLDRWGSFDIWGQGTMVTVSS
VL: not shown
notes: IgG
B7: anti-Sortilin antibody S-29 (antibody, V domains shown)
VH: B6 VH
VL: not shown
notes: IgG
B8: anti-Sortilin antibody S-22 (antibody, V domains shown)
VH: B3 VH with S50G, N59S, E99Q, R100G, Y102K, D103T
VL: B4 VL
B9: anti-Sortilin antibody S-29 (antibody, V domains shown)
VH: B6 VH
VL: not shown
B10: anti-Sortilin antibody S-15 (antibody, V domains shown)
VH: QVQLVQSGAEVKKPGASVKVSCKASGYTFTSYYMSWVRQAPGQGLEWMGIINPSGGSTSYAQKFQGRVTMTRDTSTSTVYMELSSLRSEDTAVYYCARDPSGIAAAGPASRYYYGMDVWGQGTTVTVSS
VL: EIVMTQSPATLSVSPGERATLSCRASQSVSSNLAWYQQKPGQAPRLLIYGASTRATGIPARFSGSGSGTEFTLTISSLQSEDFAVYYCQQARLGPWTFGGGTKVEIK
B11: anti-Sortilin antibody S-2 (antibody, V domains shown)
VH: not shown
VL: B2 VL with S50A, T91S, G93V, K94S, P96I
B12: anti-Sortilin antibody S-18 (antibody, V domains shown)
VH: B1 VH
VL: B1 VL
B13: anti-Sortilin antibody S-28 (antibody, V domains shown)
VH: B6 VH
VL: not shown
B14: anti-Sortilin antibody S-21 (antibody, V domains shown)
VH: B3 VH
VL: B2 VL with S50A, T91K, D92A, G93S, K94L, P96F
B15: anti-Sortilin antibody S-51 (antibody, V domains shown)
VH: QVQLVESGGGVVQPGRSLRLSCAASGFTFSSYGMHWVRQAPGKGLEWVAVISYDGSNKYYADSVKGRFTISRDNSKNTLYLQMNSLRAEDTAVYYCAKGLEYYDSSRLYYPYYYYMDVWGKGTTVTVSS
VL: EIVLTQSPATLSLSPGERATLSCRASQSVSSYLAWYQQKPGQAPRLLIYDASKRATGIPARFSGSGSGTDFTLTISSLEPEDFAVYYCQQRSNYPITFGGGTKVEIK
B16: anti-Sortilin antibody S-14 (antibody, V domains shown)
VH: B10 VH
VL: B2 VL with S50G, T91H, D92Y, G93V, K94G, P96F
B17: anti-Sortilin antibody S-55 (antibody, V domains shown)
VH: QVQLQESGPGLVKPSETLSLTCAVSGYSISSGYYWGWIRQPPGKGLEWIGSIYHSGSTYYNPSLKSRVTISVDTSKNQFSLKLSSVTAADTAVYYCARGRPELGWDKYFQHWGQGTLVTVSS
VL: DIQMTQSPSSVSASVGDRVTITCRASQGISRWLAWYQQKPGKAPKLLIYAASSLQSGVPSRFSGSGSGTDFTLTISSLQPEDFATYYCQQANALPTFGGGTKVEIK
B18: anti-Sortilin antibody S-61 (antibody, V domains shown)
VH: QVQLQESGPGLVKPSETLSLTCAVSGYSISSGYYWGWIRQPPGKGLEWIGSIYHSGSTYYNPSLKSRVTISVDTSKNQFSLKLSSVTAADTAVYYCARGSPRFYYGSGSYLDLFDIWGQGTMVTVSS
VL: B10 VL with Q90E, A91Y, R92L, L93N, G94Y, W96I
B19: anti-Sortilin antibody S-19 (antibody, V domains shown)
VH: B2 VH
VL: B2 VL
B20: anti-Sortilin antibody S-6 (antibody, V domains shown)
VH: not shown
VL: B10 VL with A91V, R92A, L93N, G94Y, W96R
B21: anti-Sortilin antibody S-81 (antibody, V domains shown)
VH: QLQLQESGPGLVKPSETLSLTCTVSGGSISSSSYYWGWIRQPPGKGLEWIGSIYYSGSTYYNPSLKSRVTISVDTSKNQFSLKLSSVTAADTAVYYCARERWDLGHGMDVWGQGTTVTVSS
VL: not shown
B22: anti-Sortilin antibody S-26 (antibody, V domains shown)
VH: B5 VH
VL: B5 VL

molecular target: T1, recombinant mouse Sortilin (mouse, UniProt Q6PHU5 74-825); assay: flow cytometry, 293 cells expressing recombinant mouse Sortilin, 10 ug/ml antibody
T1 construct: also called mSort
Procedure: (§1) Cells were harvested, plated at 10⁵/ml in a 96 well plate, washed, and incubated in 100 μl PBS containing 10 μg/ml Mab and 2% FBS for 1 hour in ice. Cells were then washed twice and incubated in 100 μl PBS+2% FBS containing 5 μg/ml PE-conjugated anti-human secondary antibody for 30 minutes in ice. Cells were washed twice in cold PBS and data was acquired on a BD FACS Canto. Data analysis and calculation of MFI values was performed with FlowJo (TreeStar) software version 10.0.7.

Compared with B1, B2 is higher in MFI: 21700 MFI for the first, 28200 MFI for the second.

Compared with B3, B4 is higher in MFI: 22900 MFI for the first, 23200 MFI for the second.

Going from B5 to B6, the MFI rises from 20900 MFI to 21600 MFI.

Binder B7 has an MFI of 21800 MFI.

molecular target: human Sortilin (human, UniProt Q99523 78-830); assay: cell-based or functional assay

First: B8
Second: B9
The “Percent reduction of Sortilin levels in U251 cells” value (from here on “Percent reduction … in U251 cells”) of the first is higher: 92.7% for the first, 90.8% for the second.

Compared with B10, B11 is higher in “Percent reduction … in U251 cells” value: 87.8% for the first, 96.2% for the second.

Going from B12 to B13, the “Percent reduction … in U251 cells” value falls from 85.7% to 85%.

Compared with B14, B15 is lower in “Percent reduction … in U251 cells” value: 78.7% for the first, 75.9% for the second.

Compared with B16, B17 is lower in “Percent reduction … in U251 cells” value: 75.4% for the first, 73% for the second.

Going from B18 to B19, the “Percent reduction … in U251 cells” value rises from 70.3% to 93.4%.

Going from B20 to B21, the “Percent reduction … in U251 cells” value falls from 42.5% to 18.2%.

For B22, the “Percent reduction … in U251 cells” value was 17.1%.

molecular target: mouse Sortilin (mouse, UniProt Q6PHU5 74-825); assay: cell-based or functional assay

First: B8
Second: B9
The “Percent reduction of Sortilin levels in N2A cells” value (from here on “Percent reduction … in N2A cells”) of the first is higher: 87.7% for the first, 53.8% for the second.

Compared with B10, B11 is lower in “Percent reduction … in N2A cells” value: 76.1% for the first, 66% for the second.

Going from B12 to B13, the “Percent reduction … in N2A cells” value falls from 58% to 51.1%.

First: B14
Second: B15
The “Percent reduction … in N2A cells” value of the first is lower: 71.9% for the first, 80.7% for the second.

Going from B16 to B17, the “Percent reduction … in N2A cells” value rises from 58.5% to 67.7%.

Compared with B18, B19 is higher in “Percent reduction … in N2A cells” value: 62.7% for the first, 86.5% for the second.

First: B20
Second: B21
The “Percent reduction … in N2A cells” value of the first is lower: 45.1% for the first, 51.3% for the second.

B22 was tested, and the “Percent reduction … in N2A cells” value was 47.3%.

molecular target: T2, recombinant human Sortilin (human, UniProt Q99523 78-830); assay: flow cytometry, 293 cells expressing recombinant human Sortilin, 10 ug/ml antibody
T2 construct: also called hSort; SORT1
Procedure: as §1

First: B1
Second: B2
The MFI of the first is lower: 9350 MFI for the first, 11700 MFI for the second.

Compared with B3, B4 is lower in MFI: 9380 MFI for the first, 8940 MFI for the second.

Compared with B5, B6 is lower in MFI: 9020 MFI for the first, 8560 MFI for the second.

B7 was tested, and the MFI was 9600 MFI.
